Laboratory results: patent US20090082262A1 (published 2009)
*: point of attachment. Nonanoyl = CCCCCCCCC(=O)*

Tests used:
[1] = biological target: T1, chemokine receptor 5 (CCR5) (human, UniProt P51681 1-352); assay: competition with [125I]-MIP-β1, CHO-K1 membranes
T1 construct: whole, on cells
Experimental: (§1) For determination of its binding properties, CHO-K1 cells were used which were stably transfected with the chemokine receptors CCR1, CCR3, CCR5. Therefore, crude membrane extracts prepared from the CHO-K1 cell lines expressing the various GPC were used in radioligand binding assays. Competition binding assays were performed in Minisorp tubes (Nunc, Roskilde, Denmark) in a total volume of 100 μl containing 0.1 nM iodinated ligand as tracer, variable concentrations of competitors and defined amount of membranes. Total binding was measured in the absence of competitor and non-specific binding was measured with a 100-fold excess, of unlabelled ligand. Samples were incubated for 90 minutes at 25° C. then filtered through GF/B filters presoaked in 0.3% polyethylenenimine. Filters were counted in a gamma scintillation counter (Packard). Binding parameters were determined with the PRISM software (Graphpad software, San Diego, Calif.) using non-linear regression applied to a one site competition model.
FIG. 6 represents the compound PHC-1, full size HCC-1 and reference chemokines tested on CCR1, CCR3 and CCR5. Competition binding assays were performed with [¹²⁵I]-RANTES for CCR1, [¹²⁵I]-Eotaxin for CCR3 and [¹²⁵I]-MIP-1, for CCR5. PHC-1, HCC1, MIP-1, RANTES, Eotaxin and MCP-4 were used as competitors. FIGS. 3 and 4 show the binding of additional chemokine compounds of the invention to the CCR5 and CCR1 respectively. Competition assays were performed with [¹²⁵I]-MIP-β1 for CCR5, and [¹²⁵I]-MIP-α1 for CCR1. Each of the chemokine compounds tested was capable of binding both the CCR5 and CCR1 receptors.

[2] = biological target: T2, chemokine receptor 1 (CCR1) (UniProt P56482 1-355); assay: radioligand competition binding on CCR1
T2 sequence (P56482 whole entry): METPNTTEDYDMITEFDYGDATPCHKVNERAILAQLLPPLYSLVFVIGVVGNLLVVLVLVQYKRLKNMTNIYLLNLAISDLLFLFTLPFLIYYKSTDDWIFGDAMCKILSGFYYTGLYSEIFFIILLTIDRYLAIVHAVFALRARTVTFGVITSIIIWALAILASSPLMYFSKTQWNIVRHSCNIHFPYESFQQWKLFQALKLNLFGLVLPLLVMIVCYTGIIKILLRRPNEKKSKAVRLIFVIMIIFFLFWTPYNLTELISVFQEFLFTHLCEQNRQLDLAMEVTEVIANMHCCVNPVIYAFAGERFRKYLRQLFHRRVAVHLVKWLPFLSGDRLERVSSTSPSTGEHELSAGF

[3] = biological target: T2, chemokine receptor 1 (CCR1); assay: competition with 125I-Rantes binding to CCR1
[4] = biological target: T2, chemokine receptor 1 (CCR1); assay: competition with 0.1 nM 125I-Rantes, membranes of CHO-K1 cells expressing CCR1, filtration
chemokine receptor CCR3 = biological target: T3, chemokine receptor CCR3 (UniProt P51677 1-355, limits assumed); assay: competition with 0.1 nM 125I-Eotaxin, membranes of CHO-K1 cells expressing CCR3, filtration
T3 construct: whole, on cells
T3 sequence (looked up): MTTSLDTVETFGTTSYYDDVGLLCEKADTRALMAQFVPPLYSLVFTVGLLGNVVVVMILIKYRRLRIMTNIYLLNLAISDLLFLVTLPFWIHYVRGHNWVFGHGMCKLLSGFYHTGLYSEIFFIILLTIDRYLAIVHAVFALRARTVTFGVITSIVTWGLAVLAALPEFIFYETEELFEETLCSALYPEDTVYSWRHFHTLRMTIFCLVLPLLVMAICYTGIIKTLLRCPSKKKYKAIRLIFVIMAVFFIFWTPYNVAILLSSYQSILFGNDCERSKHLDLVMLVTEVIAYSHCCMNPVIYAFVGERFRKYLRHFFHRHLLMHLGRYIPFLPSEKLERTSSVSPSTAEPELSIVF
Experimental: as §1
The processed chemokine PHC-1 was a strong competitor of ¹²⁵I-Rantes binding to CCR1 with half-maximal inhibitory concentration of 2.3±0.7 nM. (Ki±SEM).

[5] = biological target: T1, chemokine receptor 5 (CCR5); assay: radioligand competition binding as in Example 4
Experimental: as §1
FIG. 6 represents the compound PHC-1, full size HCC-1 and reference chemokines tested on CCR1, CCR3 and CCR5. Competition binding assays were performed with [¹²⁵I]-RANTES for CCR1, [¹²⁵I]-Eotaxin for CCR3 and [¹²⁵I]-MIP-1, for CCR5. PHC-1, HCC1, MIP-1, RANTES, Eotaxin and MCP-4 were used as competitors. […]

T1 sequence (P51681 whole entry): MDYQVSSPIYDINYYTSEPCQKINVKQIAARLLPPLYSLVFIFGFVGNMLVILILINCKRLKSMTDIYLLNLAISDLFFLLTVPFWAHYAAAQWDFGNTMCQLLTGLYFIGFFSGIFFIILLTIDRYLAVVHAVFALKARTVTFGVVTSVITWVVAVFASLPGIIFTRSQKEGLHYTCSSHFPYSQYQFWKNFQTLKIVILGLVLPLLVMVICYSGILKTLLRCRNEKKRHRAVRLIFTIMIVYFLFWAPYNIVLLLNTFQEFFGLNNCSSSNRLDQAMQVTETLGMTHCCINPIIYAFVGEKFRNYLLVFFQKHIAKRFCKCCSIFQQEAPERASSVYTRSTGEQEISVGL

B1: HCC-1[11-74] (ligand)
chain: YHPSECCFTYTTYKIPRQRIMDYYETNSQCSKPGIVFITKRGHSVCTNPSDKWVQDYIKDMKEN
notes: Synthetic, oxidatively folded
- binding result [1]: binds

B2: full size HCC-1 (HCC-1, residues 1-74) (ligand)
chain: TKTESSSRGPYHPSECCFTYTTYKIPRQRIMDYYETNSQCSKPGIVFITKRGHSVCTNPSDKWVQDYIKDMKEN
notes: The 74-residue chemokine, Mr 8673; also called full-length HCC-1; HCC-1, 1-74
- Ki [2]: 100 nM

B3: PHC-1 (HCC-1[9-74]) (ligand)
chain: GPYHPSECCFTYTTYKIPRQRIMDYYETNSQCSKPGIVFITKRGHSVCTNPSDKWVQDYIKDMKEN
notes: Purified from human hemofiltrate or made by tryptic digestion of HCC-1 1-74; also called processed chemokine PHC-1; HCC-1, residues 9-74
- Ki [3]: 23000 nM
- IC50 [4]: 2.3 nM
- IC50 (chemokine receptor CCR3): 78 nM

B4: HCC-1[8-74] (ligand)
chain: RGPYHPSECCFTYTTYKIPRQRIMDYYETNSQCSKPGIVFITKRGHSVCTNPSDKWVQDYIKDMKEN
notes: Synthetic, oxidatively folded
- binding result [1]: binds

B5: HCC-1[7-74] (ligand)
chain: SRGPYHPSECCFTYTTYKIPRQRIMDYYETNSQCSKPGIVFITKRGHSVCTNPSDKWVQDYIKDMKEN
notes: Synthetic, oxidatively folded
- binding result [1]: binds

B6: HCC-1[10-74] (ligand)
chain: PYHPSECCFTYTTYKIPRQRIMDYYETNSQCSKPGIVFITKRGHSVCTNPSDKWVQDYIKDMKEN
notes: Synthetic, oxidatively folded
- binding result [1]: binds

B7: NNY-HCC-1[10-74] (ligand)
chain: Nonanoyl-PYHPSECCFTYTTYKIPRQRIMDYYETNSQCSKPGIVFITKRGHSVCTNPSDKWVQDYIKDMKEN
modifications: ends and bridges not checked
notes: An N-terminally modified analog of HCC-1[10-74]; also called nonanoyl-HCC-1[10-74]
- binding result [5]: binds
